The text below walks through data of paper PMC11852578, “Enhanced Site-Specific Fluorescent Labeling of Membrane Proteins Using Native Nanodiscs” (Biomolecules, 2025).

One may read the stoichiometry N as a count of units in the complex or per binding partner.

Series [1] deals with the molecule itself. As to the kind of experiment: SDS-PAGE; HpUreI L134C purified in LDAO instead of DDM.
Series [2] deals with the molecule itself. As to the kind of experiment: fluorescence correlation spectroscopy (molecular brightness); SEC-purified, AF647-labelled protein in Glyco-DIBMA nanodiscs; brightness compared with free AF647 maleimide dye at the same laser power, assuming labelling of all monomers.
Series [3] concerns the molecule itself. As to the kind of experiment: SEC; HpUreI L134C in Glyco-DIBMA native nanodiscs, labelled with AF647 maleimide; standard buffer 150 mM NaCl, 50 mM Tris, pH 7.4. A general note: Size exclusion chromatography separates by hydrodynamic size, large species first.
Series [4] concerns the molecule itself. The series can be described thus: SEC; KvAP in 0.25% (w/v) DM micelles; Superdex 200 Increase 10/300; SEC buffer 100 mM KCl, 25 mM Tris, pH 8; size estimated against gel filtration standards.
Series [5] deals with the molecule itself. As to the kind of experiment: SEC; KvAP in Glyco-DIBMA native nanodiscs, labelled with AF647 maleimide; standard buffer 150 mM KCl, 50 mM Tris, pH 7.4; UV and fluorescence detection.

B1: HpUreI L134C single-cysteine mutant, Helicobacter pylori proton-gated urea channel, in detergent (DDM or LDAO) (natural protein)
chain: MLGLVLLYVGIVLISNGICGLTKVDPKSTAVMNFFVGGLSIICNIVVITYSALHPTAPVEGAEDIAQVSHHLTSFYGPATGLLFGFTYLYAAINHTFGLDWRPYSWYSLFVAINTIPAAILSHYSDMLDDHKVCGITEGDWWAIIWLAWGVLWLTAFIENILKIPLGKFTPWLAIIEGILTAWIPAWLLFIQHWV
notes: urea channel HpUreI, Helicobacter pylori; The hexamer remained unlabelled in detergent; with TCEP only aggregated and non-hexameric oligomers were labelled; also called detergent-solubilized HpUreI; source: E. coli C43, membranes solubilised in DDM or LDAO, purified (cobalt beads, HRV 3C cleavage, SEC)
As for B1, in series [1], the “stoichiometry N” value worked out at 6.

B2: HpUreI L134C single-cysteine mutant labelled with AF647 maleimide, in Glyco-DIBMA native nanodiscs (natural protein)
chain: MLGLVLLYVGIVLISNGICGLTKVDPKSTAVMNFFVGGLSIICNIVVITYSALHPTAPVEGAEDIAQVSHHLTSFYGPATGLLFGFTYLYAAINHTFGLDWRPYSWYSLFVAINTIPAAILSHYSDMLDDHKVCGITEGDWWAIIWLAWGVLWLTAFIENILKIPLGKFTPWLAIIEGILTAWIPAWLLFIQHWV
modifications: Alexa Fluor 647 maleimide on the introduced cysteine L134C
notes: urea channel HpUreI, Helicobacter pylori; Same construct as m7, but labelled and in a nanodisc; no removal of the His tag is told for the nanodisc preparation; also called nanodisc-embedded HpUreI; source: E. coli C43, membranes extracted with Glyco-DIBMA, purified (Ni-NTA with on-column labelling, SEC)
In the case of B2, the “stoichiometry N” value in series [2] is ~6; in series [3] it was 6.

B3: KvAP wild type, archaeal voltage-gated potassium channel from Aeropyrum pernix, in DM detergent micelles (natural protein)
chain: GGRVRNIGDVMEHPLVELGVSYAALLSVIVVVVEYTMQLSGEYLVRLYLVDLILVIILWADYAYRAYKSGDPAGYVKKTLYEIPALVPAGLLALIEGHLAGLGLFRLVRLLRFLRILLIISRGSKFLSAIADAADKIRFYHLFGAVMLTVLYGAFAIYIVEYPDPNSSIKSVFDALWWAVVTATTVGYGDVVPATPIGKVIGIAVMLTGISALTLLIGTVSNMFQKILVGEPEPSCSPAKLAEMVSSMSEEEFEEFVRTLKNLRRLENSMK
notes: voltage-gated potassium channel KvAP, Aeropyrum pernix; native cysteine printed as C260; Labelling with AF647 maleimide failed in detergent, so the protein was unlabelled; also called wild-type KvAP; source: E. coli C43, pET21a-derived vector, membranes solubilised in DM, purified (Ni-NTA, SEC)
Take B3: the “stoichiometry N” value in series [4] is 4.

B4: KvAP E275C single-cysteine mutant labelled with AF647 maleimide, in Glyco-DIBMA native nanodiscs (natural protein, Aeropyrum pernix)
chain: GGRVRNIGDVMEHPLVELGVSYAALLSVIVVVVEYTMQLSGEYLVRLYLVDLILVIILWADYAYRAYKSGDPAGYVKKTLYEIPALVPAGLLALIEGHLAGLGLFRLVRLLRFLRILLIISRGSKFLSAIADAADKIRFYHLFGAVMLTVLYGAFAIYIVEYPDPNSSIKSVFDALWWAVVTATTVGYGDVVPATPIGKVIGIAVMLTGISALTLLIGTVSNMFQKILVGEPEPSASPAKLAEMVSSMSECEFEEFVRTLKNLRRLENSMK
modifications: Alexa Fluor 647 maleimide on the introduced cysteine E275C
notes: voltage-gated potassium channel KvAP, Aeropyrum pernix; native cysteine mutated to alanine and cysteine introduced at E275; Same construct as m4, but labelled and in a nanodisc; also called mutant E275C; source: E. coli C43, membranes extracted with Glyco-DIBMA, purified (Ni-NTA with on-column labelling, SEC)
Regarding B4, the “stoichiometry N” value in series [2] is ~4.

B5: KvAP wild type labelled with AF647 maleimide, in Glyco-DIBMA native nanodiscs (natural protein, Aeropyrum pernix)
chain: GGRVRNIGDVMEHPLVELGVSYAALLSVIVVVVEYTMQLSGEYLVRLYLVDLILVIILWADYAYRAYKSGDPAGYVKKTLYEIPALVPAGLLALIEGHLAGLGLFRLVRLLRFLRILLIISRGSKFLSAIADAADKIRFYHLFGAVMLTVLYGAFAIYIVEYPDPNSSIKSVFDALWWAVVTATTVGYGDVVPATPIGKVIGIAVMLTGISALTLLIGTVSNMFQKILVGEPEPSCSPAKLAEMVSSMSEEEFEEFVRTLKNLRRLENSMK
modifications: Alexa Fluor 647 maleimide on the native cysteine C260
notes: voltage-gated potassium channel KvAP, Aeropyrum pernix; native cysteine printed as C260; Same construct as m1, but labelled and in a polymer-encapsulated lipid nanodisc; also called wild-type KvAP; nanodisc-purified wild-type KvAP; source: E. coli C43, membranes extracted with Glyco-DIBMA, purified (Ni-NTA with on-column labelling, SEC)
Turning to B5, the “stoichiometry N” value was ~4 in series [2] and 4 in series [5].

B6: KvAP K102C single-cysteine mutant labelled with AF647 maleimide, in Glyco-DIBMA native nanodiscs (natural protein, Aeropyrum pernix)
chain: GGRVRNIGDVMEHPLVELGVSYAALLSVIVVVVEYTMQLSGEYLVRLYLVDLILVIILWADYAYRAYKSGDPAGYVKCTLYEIPALVPAGLLALIEGHLAGLGLFRLVRLLRFLRILLIISRGSKFLSAIADAADKIRFYHLFGAVMLTVLYGAFAIYIVEYPDPNSSIKSVFDALWWAVVTATTVGYGDVVPATPIGKVIGIAVMLTGISALTLLIGTVSNMFQKILVGEPEPSASPAKLAEMVSSMSEEEFEEFVRTLKNLRRLENSMK
modifications: Alexa Fluor 647 maleimide on the introduced cysteine K102C
notes: voltage-gated potassium channel KvAP, Aeropyrum pernix; native cysteine mutated to alanine and cysteine introduced at K102; Same construct as m3, but labelled and in a nanodisc; also called mutant K102C; source: E. coli C43, membranes extracted with Glyco-DIBMA, purified (Ni-NTA with on-column labelling, SEC)
With B6, in series [2], the “stoichiometry N” value is ~4.

B7: KvAP E275C single-cysteine mutant, in DM detergent micelles (natural protein, Aeropyrum pernix)
chain: GGRVRNIGDVMEHPLVELGVSYAALLSVIVVVVEYTMQLSGEYLVRLYLVDLILVIILWADYAYRAYKSGDPAGYVKKTLYEIPALVPAGLLALIEGHLAGLGLFRLVRLLRFLRILLIISRGSKFLSAIADAADKIRFYHLFGAVMLTVLYGAFAIYIVEYPDPNSSIKSVFDALWWAVVTATTVGYGDVVPATPIGKVIGIAVMLTGISALTLLIGTVSNMFQKILVGEPEPSASPAKLAEMVSSMSECEFEEFVRTLKNLRRLENSMK
notes: voltage-gated potassium channel KvAP, Aeropyrum pernix; native cysteine mutated to alanine and cysteine introduced at E275; Labelling failed in detergent, so the protein was unlabelled; source: E. coli C43, pET21a-derived vector, membranes solubilised in DM, purified (Ni-NTA, SEC)
B7: the “stoichiometry N” value in series [4] was 4.

B8: KvAP K102C single-cysteine mutant, in DM detergent micelles (natural protein, Aeropyrum pernix)
chain: GGRVRNIGDVMEHPLVELGVSYAALLSVIVVVVEYTMQLSGEYLVRLYLVDLILVIILWADYAYRAYKSGDPAGYVKCTLYEIPALVPAGLLALIEGHLAGLGLFRLVRLLRFLRILLIISRGSKFLSAIADAADKIRFYHLFGAVMLTVLYGAFAIYIVEYPDPNSSIKSVFDALWWAVVTATTVGYGDVVPATPIGKVIGIAVMLTGISALTLLIGTVSNMFQKILVGEPEPSASPAKLAEMVSSMSEEEFEEFVRTLKNLRRLENSMK
notes: voltage-gated potassium channel KvAP, Aeropyrum pernix; native cysteine mutated to alanine and cysteine introduced at K102; Labelling failed in detergent, so the protein was unlabelled; source: E. coli C43, pET21a-derived vector, membranes solubilised in DM, purified (Ni-NTA, SEC)
Take B8: in series [4], the “stoichiometry N” value is 4.
